The conditions of experiment [1]: in vivo; cited from earlier work.
The target of experiment [2] is T1, CCR5 (Homo sapiens, UniProt P51681). The note with it: activated human T cells, cited from earlier work.
In the next experiment the test system is HIV-1. The note with it: at concentrations that do not affect CCR5 chemokine receptor activity; in vitro and hu-PBL-SCID mouse model; cited from earlier work.
In another experiment the test system is xeno-GVHD in NSG mice. In words: xeno-GVHD in NSG mice engrafted with human bone marrow cells: physical signs, weight, survival.
Experiment [3] addresses T1, CCR5. Particulars: CD4+ T cells, cited from earlier work.
Experiment [4] relates to engrafted human cells (CD45+, CD3+). In words: Flow cytometry analysis of engrafted human cells in peripheral blood, spleen and bone marrow of NSG mice. In kind it is in vivo. Particulars: for CD45+ cells in peripheral blood at the time of euthanasia: control 64%. As for the experimental part: Peripheral blood (PB), bone marrow (BM), and spleen (SPL) samples were analyzed by flow cytometry. Splenocytes were passed through a […] strainer. Erythrocytes were lysed with ammonium chloride. Cells were washed twice with PBS and stained for 15 min at 4 deg C. in PBS/0.5 mM EDTA/0.5% BSA with the following antibodies: anti-human-CD3-FITC (clone UCHT1, IM1281U), anti-human-CD45-PC7 (clone J.33, 1M3548U), Beckman/Coulter. Samples were analyzed on a Cytomics FC500 Flow Analyzer (Beckman/Coulter).

The target in experiment [5] is T1, CCR5. Also on record: host or cells: CHO-K1. The note with it: CHO-K1 cells, cited from earlier work.
For experiment [6], the target named is T1, CCR5. In words: Tyrosine kinase phosphorylation downstream of CCR5 receptor signaling in T cells in vitro. Also on record: tyrosine kinase phosphorylation downstream of CCR5 receptor signaling in T cells in vitro; endogenous in cells; host or cells: T cells. In kind it is cell-based. The source says: Thus, it is shown that PRO 140's activity as a CCL5 competitive binding inhibitor has a mixed impact on CCL5's ability to participate in downstream activity conventionally associated with the CCR5/CCL5 axis. Further elucidation of the role of PRO 140 and its immunomodulatory effects is the subject of continued investigation.

“Also recorded” adds a separate entry of the source.

T1 sequence (P51681 whole entry): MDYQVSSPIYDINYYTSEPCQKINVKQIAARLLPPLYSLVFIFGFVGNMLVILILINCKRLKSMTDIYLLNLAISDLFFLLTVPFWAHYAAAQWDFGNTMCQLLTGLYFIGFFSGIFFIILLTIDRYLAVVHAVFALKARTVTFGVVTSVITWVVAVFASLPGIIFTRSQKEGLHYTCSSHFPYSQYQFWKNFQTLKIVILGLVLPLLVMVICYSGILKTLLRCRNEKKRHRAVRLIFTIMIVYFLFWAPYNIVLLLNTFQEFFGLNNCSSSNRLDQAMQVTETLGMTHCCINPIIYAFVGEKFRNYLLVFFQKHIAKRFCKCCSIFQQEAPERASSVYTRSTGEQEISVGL
Description for xeno-GVHD in NSG mice: Animal experiments were conducted in accordance with the ethical standards and according to national and international guidelines and were approved by the Cleveland Clinic Institutional Animal Care and Use Committee. Male NSG mice, NOD.Cg-Prkdc^scidIl2ry^tm1wjl/SzJ (NOD-scid IL2ry^null, NSG) mice were obtained from the Jackson Laboratory (Bar Harbor, Me., USA), and athymic nude (nu/nu) (Taconic, Hudson, N.Y.) 6-8 wk old were used. Mice were housed in a barrier facility in cages with microisolator lids, autoclaved bedding, and HEPA-filtered air, and maintained under 12:12 light/dark cycles, controlled temperature and humidity. […] Conditioning regimen: Mice received 2.25 Gy total body irradiation via a 137Cs source (Shepherd, Los Angeles Calif.).
Following gamma irradiation (24 h later) mice were engrafted with human BM cells. De-identified human donor cells were obtained by back-flushing filter packs utilized by the Cleveland Clinic BMT program. Fresh (non-frozen) leukocytes were purified by Ficoll-Hypaque gradient centrifugation, washed in phosphate buffered saline (PBS), assessed for viability (ViCell, Beckman Coulter, Brea, Calif.). Human BM leukocytes were injected into the lateral tail vein (10^7 cells/mouse). Mice were monitored for clinical symptoms of GVHD (body posture, activity, fur and skin condition, weight loss) two times/wk. Peripheral blood was monitored weekly for engraftment utilizing saphenous vein venipuncture (50 mL) collected in K-EDTA tubes.
Mice were randomized into control and treatment groups by body weight. PRO 140 was administered on different doses (0.2-2.0 mg/kg) and schedules. The route was always intraperitoneal (i.p.). Control mice received normal human IgG (Sigma Aldrich, St. Louis, Mo.).
Starting with the human dose of PRO 140=5.8 mg/kg×12 (man-to-mouse conversion factor)=69.6 mg/kg mouse dose; average mouse=0.025 kg, therefore dose is 69.6 mg/kg×0.025 kg=1.74 mg (mouse single dose). This was rounded up to 2.0 mg and designated as the “high dose”. A “low dose” (0.2 mg) was also tested. IgG derived from human serum (>95% SDS-PAGE, Sigma, I4506) was used as a non-specific control antibody.
Statistical analysis was performed using GraphPad Prism (GraphPad Software, La Jolla, Calif.). All measures of variance were depicted as standard error of the mean (SEM). Survival was analyzed by the Kaplan-Meier method and Mantel-Cox log-rank test. For other data, two-sided unpaired Students t-test was used.

Turning to `Cc1nnc(C(C)C)n1C1C[C@H]2CC[C@@H](C1)N2CC[C@H](NC(=O)C1CCC(F)(F)CC1)c1ccccc1` (stereo in doubt) [maraviroc], the “incidence of gastrointestinal and liver GVHD” value in experiment [1] was “dramatically decreases the incidence of gastrointestinal and liver GVHD”. Further, the “production of TNF-α and IFN-γ” value on CCR5 [2] (high doses) was “tends to decrease production of TNF-α and IFN-γ”. Further, at CCR5 [2], the “CCR5 and CCR2 internalization induced by CCL5 and CCL2” value is “can block CCR5 and CCR2 internalization processes”; the “T cell chemotactic activities toward cognate ligands” value is recorded as “inhibit T cell chemotactic activities”.

B1: PRO 140: humanized monoclonal antibody to CCR5, humanized version of the murine mAb PA14; competitive inhibitor of CCL5 binding to CCR5 receptor (antibody, chains of the INN, looked up, V domains shown)
VH: EVQLVESGGGLVKPGGSLRLSCAASGYTFSNYWIGWVRQAPGKGLEWIGDIYPGGNYIRNNEKFKDKTTLSADTSKNTAYLQMNSLKTEDTAVYYCGSSFGSNYVFAWFTYWGQGTLVTVSS
VL: DIVMTQSPLSLPVTPGEPASISCRSSQRLLSSYGHTYLHWYLQKPGQSPQLLIYEVSNRFSGVPDRFSGSGSGTDFTLKISRVEAEDVGVYYCSQSTHVPLTFGQGTKVEIK
In the case of B1, the “HIV-1 entry and replication” value with HIV-1 is “potently inhibits HIV-1 entry and replication”. Further, the “survival (Kaplan-Meier), low dose” value with xeno-GVHD in NSG mice (PRO 140 0.2 mg i.p., BM from donor, control animals all dead by 31 days) is not above 54 days. Also, the “start of physical signs of GvHD and weight loss, low dose” value in the experiment on xeno-GVHD in NSG mice (PRO 140 0.2 mg i.p., control mice starting at day 20) lay within 25 to 28 days. In the experiment with xeno-GVHD in NSG mice (PRO 140 2.0 mg i.p. twice/wk started day 1, about 20 days after engraftment), the “mean weight at about 20 days” value is “about 23.0 gm”. In the experiment with xeno-GVHD in NSG mice (PRO 140 2.0 mg i.p. twice/wk started day 1, about 52 days after engraftment), the “mean weight at about 52 days” value was “about 23.6 gm”. Moreover, in the experiment on xeno-GVHD in NSG mice (PRO 140 2.0 mg i.p. twice/wk started day 1, sacrificed at 70 days, control IgG animals all dead by 56 days), the “survival (Kaplan-Meier), high dose” value is not below 70 days. Also, the “physical signs / symptoms of GVHD” value in the experiment on xeno-GVHD in NSG mice (high dose (2.0 mg i.p. twice/wk), 70-day study period) is listed as “did not exhibit any symptoms associated with GVHD; also recorded: no physical signs of GVHD”. Moreover, the weight course entry in the experiment on xeno-GVHD in NSG mice (high dose (2.0 mg i.p. twice/wk), control mice lost weight) was “gained weight; also recorded: continued to gain weight”. In the experiment with xeno-GVHD in NSG mice (past 70 days, xeno-transplant animal model, NSG mice upon HSC engraftment), this molecule returned a survival of 100%. For the same molecule, the “effect on cAMP levels, added alone” value with CCR5 [3] (PRO 140 alone) was “does not affect cAMP levels”. For the same molecule, the “effect on cAMP levels, administered with CCL5” value with CCR5 [3] (with CCL5) is given as “does diminish the effect of CCL5 on cAMP levels”. Also, the effect on engraftment result in experiment [4] (bone marrow at the time of euthanasia) is recorded as “did not inhibit engraftment; also recorded: did not negatively affect engraftment”. The “CD45+ cells in bone marrow versus control at the time of euthanasia” value in experiment [4] (compared with control IgG mice) was “no differences”. In addition, the “CD45+ cells in spleen at the time of euthanasia” value in experiment [4] (control 58-59%, p<0.05) was 41%. For the same molecule, in experiment [4] (p<0.05), the “CD45+ cells in peripheral blood at the time of euthanasia” value is recorded as 46%. In addition, the “CD45+ cells in peripheral blood at the time of euthanasia” value in experiment [4] (p<0.05, listed as Pro 140) was 45%. Besides, in experiment [4] (high dose cohort, Day 75), the “mouse hematopoietic cells (mouse CD45) in bone marrow” value is recorded as 28% and the “mouse hematopoietic cells (mouse CD45) in peripheral blood” value stood at 14.9%. The “mature T-cells (CD45/CD3) in bone marrow at 54 days” value in experiment [4] (high dose cohort, FIG. 6 BM panel E2 quadrant, control 40.2%) was 26.4%. Besides, in experiment [4] (high dose cohort, FIG. 6 PB panel E2 quadrant, control 63.2%), the “mature T-cells (CD45/CD3) in peripheral blood at 54 days” value came to 49.8%. Further, the “human CD45+ cells in peripheral blood versus control at day 50” value in experiment [4] (high dose, compared with control IgG mice) was “significantly lower”. Further, the “human CD45+ cells in peripheral circulation at 50 days” value in experiment [4] (high dose, control 62%, p=0.034) was determined as 43%. The “delay until the same percentage of CD45+ engraftment as control” value in experiment [4] (low dose (0.2 mg), peripheral blood, P<0.01) is “approximately 20 days”. Moreover, in experiment [4] (low dose cohort (0.2 mg)), the “divergence in engraftment from control, start” value came to 15 days. In the experiment with CCR5 [5] (PRO 140 alone), the “effect on chemotaxis, alone” value is reported as “does not affect chemotaxis”. Besides, the “effect on CCL5-induced chemotaxis” value with CCR5 [5] (with CCL5) is given as “does reduce CCL5-induced chemotaxis”. For the same molecule, the “effect on tyrosine kinase phosphorylation, alone” value with CCR5 [6] (PRO 140 alone) is reported as “does not affect tyrosine kinase phosphorylation”. Further, the “effect on phosphorylation of tyrosine kinases by CCL5” value with CCR5 [6] (with CCL5) is on record as “does not inhibit phosphorylation of such kinases by CCL5”.

Source of the values: patent US20190016810A1, “METHODS FOR TREATING OR PREVENTING GRAFT-VERSUS-HOST DISEASE INVOLVING THE ADMINISTRATION OF ANTI-CCR5 RECEPTOR AGENTS” (CytoDyn Inc., priority 2017, published 2019).
